# From IntAct's records for PubMed 24316736
# B1: Ubiquitin-conjugating enzyme E2 R1 (Homo sapiens), P49427 (parent)
# chain: MARPLVPSSQKALLLELKGLQEEPVEGFRVTLVDEGDLYNWEVAIFGPPNTYYEGGYFKARLKFPIDYPYSPPAFRFLTKMWHPNIYETGDVCISILHPPVDDPQSGELPSERWNPTQNVRTILLSVISLLNEPNTFSPANVDASVMYRKWKESKGKDREYTDIIRKQVLGTKVDAERDGVKVPTTLAEYCVKTKAPAPDEGSDLFYDDYYEDGEVEEEADSCFGDDEDDSGTEES
# Variants of: B1
# Settings: with rbx1_human RBX1, P62877
# Chain of rbx1_human RBX1, P62877 (P62877 whole entry, looked up): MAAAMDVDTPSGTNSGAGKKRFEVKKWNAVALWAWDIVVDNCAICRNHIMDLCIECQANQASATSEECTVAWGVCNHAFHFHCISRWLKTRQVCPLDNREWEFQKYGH
row,Variant,effect of a mutation on the interaction
1,Y70R,disrupting interaction strength
2,T117E,disrupting interaction strength
